Data taken from paper PMC4324310.

How the values were obtained:
[1] = system: T1, RovS (Streptococcus agalactiae NEM316), ORF:d252635c; assay: EMSA
T1 sequence: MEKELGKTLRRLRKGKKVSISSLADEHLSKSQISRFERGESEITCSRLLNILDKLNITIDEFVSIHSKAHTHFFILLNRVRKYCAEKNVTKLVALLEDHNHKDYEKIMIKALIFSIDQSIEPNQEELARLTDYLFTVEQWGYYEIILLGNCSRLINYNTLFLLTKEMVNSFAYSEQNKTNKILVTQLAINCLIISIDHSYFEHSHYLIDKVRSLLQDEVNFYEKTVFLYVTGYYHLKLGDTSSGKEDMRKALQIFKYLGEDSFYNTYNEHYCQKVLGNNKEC

[2] = system: T1, RovS (Streptococcus agalactiae NEM316), ORF:d252635c; assay: competition

| Sequence | binding [1] | binding ([1]; part of the binding motif deleted) | binding [2] |
| --- | --- | --- | --- |
| GCAATTTATTATTAATTTGTATGTTTAAAATTAAATAGTTGATATCTAAAACATGATATTTTTAAATTTTCCTTTAATATTATAAAGCATGATAGATAGTCATACTAACATTAAGATTTACAATGAGGTAATAGTATATT (double strand) [PfbsA probe] | no binding |  |  |
| CTAACTTTTTTTCCTTTACGTAATCTTCTTAGTGTTTTTCCTAATTCTTTTTCCATTTTTATTTAAAAGACCCTTTAAATCCATTATATAATACAAGTACAAAATAGAAAATCAGAAAGG (double strand) [Pshp without the motif probe] |  | no binding |  |
| ATTAGTGACTTCTTTCATTGAAAATGATAGAATATAGGTGTATGGGAAACTTCCCAAAAATATTTAAGGAGATGTTTAGAAATGACTGCAACTAAACAACATAAAAAAGTTATCCTCGTTGGTGATGGTG (double strand) [PldhL probe] | no binding |  | no binding |
